One experiment addresses T1, human Sirpα-V1-hFc (human, UniProt P78324 31-373).
T1 construct: range 31-373; also called hSirpα (dimer); hSirpα-V1-hFc (dimer); not shown: human IgG1 Fc region at the C-terminus
Nature of the experiment: blocking ELISA, competitor CD47-his. The protocol: The recombinant proteins such as human Sirpα-V1-hFc/Sirpα-V1-his were diluted to concentrations of 5 μg/mL or 2 μg/mL respectively with a PBS buffer at pH 7.4, and then added into a 96-well ELISA plate (Corning, CLS3590-100EA) at a volume of 50 μL/well, and placed in an incubator at 37° C. for 2 hours. After the liquid was discarded, the wells were added with a blocking solution of 5% skimmed milk (skimmed milk powder available from Bright Dairy) diluted with PBS at 230 μL/well, and incubated in an incubator at 37° C. for 3 hours, or placed overnight at 4° C. (for 16-18 hours) for blocking. […] The plate was washed for 5 times, added with 50 μL/well of streptavidin-HRP (GenScript, M00091) or anti-his-HRP secondary antibody (GenScript, A00612) diluted at 1:1000, incubated at 37° C. for 1 hour, and then washed with PBST for 5 times. Each well was added with 50 μL of TMB (Surmodic, Cat #: TTMB-1000-01) for color development, and added with 50 μL/well of 1 M H₂SO₄ to stop the reaction. The readings on a microplate reader (MultiskanGO Thermo, Model 51119200) were subjected to data analysis by GraphPad prism 5.
Background: An ELISA detects its analyte on a solid surface through an enzyme-linked reagent.

Experiment [1] addresses T2, human T cells (expressing Sirpγ) (human, UniProt Q9P1W8 29-387).
T2 construct: whole, on cells; The target as printed is the cell; also called human PBMCs (T cells)
The experiment in a line: flow cytometry on PBMC.
Procedure: The cryopreserved PBMC cells were taken, thawed at 37° C., then added into 3 mL of a FACS buffer (1×PBS+2% FBS), and centrifuged at 1,000 rpm for 5 min, the supernatant was discarded, the cells were resuspended in the FACS buffer for counting, and the density was adjusted to 1×10⁶ cells/mL. PBMCs were added into a U-shaped 96-well plate at 100 μL cells/well, and added with the antibody to be detected so that the final concentrations thereof are 10 μg/mL, 1 μg/mL and 0 μg/mL respectively. They were mixed uniformly, then incubated at room temperature for 20 min, and centrifuged at 2,000 rpm for 5 min. The supernatant was discarded, and the cell pellet was resuspended by adding 100 μL of the FACS buffer, and centrifuged at 2,000 rpm for 5 min. […] The mixture was centrifuged at 2,000 rpm for 5 min. The supernatant was discarded, and the cell pellet was washed once with 100 μL of the FACS buffer, resuspended with 100 μL of the FACS buffer, and read by a flow cytometer (Novosampler™ pro, model: NS200). The assay data was processed with NovoExpress. Taking the sample well with the antibody concentration of 0 μg/mL as the negative control, based on this, the proportion of T cells specifically bound with the antibody to be tested was calculated.

The target in experiment [2] is T3, human Sirpα-V1-his (human, UniProt P78324 31-373).
T3 construct: range 31-373; Bought (Sino Biological 11612-H08H) or expressed in-house; also called hSirpα-V1; hSirpα-V1-his
Nature of the experiment: ELISA EC50 against Ref2. The protocol: (§1) Different antigens (recombinant proteins) such as the human Sirpα-V1-hFc, Sirpα-V1-his, Sirpα-V2-his, Sirpβ-his, Sirpγ-his, monkey Sirpα-his (cynoSirpα-his) or NOD-mSirpα-his described in Example 1 were diluted with a PBS buffer at pH7.4 to concentrations of 1 μg/mL, 2 μg/mL or 5 μg/mL, added into a 96-well ELISA plate (Corning, CLS3590-100EA) at a volume of 50 μL/well, and placed in an incubator at 37° C. for 2 hours. After the liquid was discarded, the wells were added with a blocking solution of 5% skimmed milk (skimmed milk powder available from Bright Dairy) diluted with PBS at 230 μL/well, and incubated in an incubator at 37° C. for 3 hours, or placed overnight at 4° C. (for 16-18 hours) for blocking. […] The plated was washed with PBST for 5 times, then added with 50 μL/well of TMB chromogenic substrate (KPL, Cat #: 52-00-03), incubated at room temperature for 10-15 min, added with 50 μL/well of 1 M H₂SO₄ to stop the reaction, and read by a […] Go microplate reader (ThermoFisher, Cat #: 51119200) for the absorbance value at 450 nm, and then a clone with high binding activity was selected or a EC₅₀ value was calculated according to the OD value.

The target in a further experiment is human Sirpα-V2-his (human). Nature of the experiment: ELISA EC50 against Ref2. The protocol:
as §1

Another experiment addresses T4, Cyno Sirpα L938 (cynomolgus, limits assumed).
T4 construct: also called RB6-1; Cyno Sirpα polymorphism 5 (L938)
T4 chain: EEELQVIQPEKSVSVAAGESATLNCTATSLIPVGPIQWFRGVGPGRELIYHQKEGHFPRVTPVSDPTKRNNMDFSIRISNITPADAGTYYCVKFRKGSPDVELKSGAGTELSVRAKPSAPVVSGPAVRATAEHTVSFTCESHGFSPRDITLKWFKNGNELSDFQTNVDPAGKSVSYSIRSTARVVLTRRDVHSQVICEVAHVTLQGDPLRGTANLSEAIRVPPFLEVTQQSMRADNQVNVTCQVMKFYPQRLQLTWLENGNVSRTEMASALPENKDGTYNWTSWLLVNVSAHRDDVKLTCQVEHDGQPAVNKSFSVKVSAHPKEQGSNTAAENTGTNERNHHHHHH
Nature of the experiment: ELISA. Here is the method: as §1, with “blocking. The blocking solution was discarded, and the plate was washed with a PBST buffer (pH7.4 PBS containing 0.05% Tween-20) for 5 times, then added with 50 μL/well of the supernatant (containing a detection antibody) or 10 μg/mL of the starting 5-fold gradient dilution of the antibody to be tested, and incubated at 37° C. for 1 hour.” for “blocking.”

The next experiment has as its target T5, Cyno Sirpα L937 (cynomolgus).
T5 construct: also called RB3-5; Cyno Sirpα polymorphism 4 (L937)
T5 chain: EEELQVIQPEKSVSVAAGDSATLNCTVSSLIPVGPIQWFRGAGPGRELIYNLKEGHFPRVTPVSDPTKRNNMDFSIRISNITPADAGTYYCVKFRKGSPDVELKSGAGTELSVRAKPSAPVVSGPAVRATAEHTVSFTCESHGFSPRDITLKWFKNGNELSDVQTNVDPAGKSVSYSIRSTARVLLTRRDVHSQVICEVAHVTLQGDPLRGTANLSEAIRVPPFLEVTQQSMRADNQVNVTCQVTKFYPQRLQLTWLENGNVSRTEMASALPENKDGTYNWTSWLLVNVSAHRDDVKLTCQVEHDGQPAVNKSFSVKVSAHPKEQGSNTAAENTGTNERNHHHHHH
Nature of the experiment: ELISA. Here is the method:
as §1, with “blocking. The blocking solution was discarded, and the plate was washed with a PBST buffer (pH7.4 PBS containing 0.05% Tween-20) for 5 times, then added with 50 μL/well of the supernatant (containing a detection antibody) or 10 μg/mL of the starting 5-fold gradient dilution of the antibody to be tested, and incubated at 37° C. for 1 hour.” for “blocking.”

Experiment [3] concerns the target T3, human Sirpα-V1-his. Nature of the experiment: blocking ELISA, competitor CD47-hFc. Here is the method:
The antigens PD-1 and Sirpα expressed according to the method of Example 1 were diluted with a PBS buffer at pH7.4 to a concentration of 2 μg/mL, added into a 96-well ELISA plate (Corning, CLS3590-100EA) at a volume of 50 μL/well, and incubated at 37° C. for 2 hours. After the liquid was discarded, the wells were added with a blocking solution of 5% skimmed milk (Sangon Biotech (Shanghai) Co., Ltd., A600669-0250) formulated with PBS at 200 μL/well, and incubated at 37° C. for 3 hours for blocking. […] The plate was washed with PBST for 5 times, added with 50 μL/well of HRP-labeled secondary antibody (GenScript Biotechnology Co., Ltd., M00091) diluted at 1:1000, and incubated at 37° C. for 1 hour. The plated was washed with PBST for 5 times, then added with 50 μl/well of TMB chromogenic substrate (KPL, 52-00-03), incubated at room temperature for 5-10 min, added with 50 μl/well of 1 M H₂SO₄ to stop the reaction, and read by a […] Go microplate reader (ThermoFisher, 51119200) for the absorbance value at 450 nm, and then IC₅₀ was calculated according to the OD value.

T2 sequence (Q9P1W8 29-387): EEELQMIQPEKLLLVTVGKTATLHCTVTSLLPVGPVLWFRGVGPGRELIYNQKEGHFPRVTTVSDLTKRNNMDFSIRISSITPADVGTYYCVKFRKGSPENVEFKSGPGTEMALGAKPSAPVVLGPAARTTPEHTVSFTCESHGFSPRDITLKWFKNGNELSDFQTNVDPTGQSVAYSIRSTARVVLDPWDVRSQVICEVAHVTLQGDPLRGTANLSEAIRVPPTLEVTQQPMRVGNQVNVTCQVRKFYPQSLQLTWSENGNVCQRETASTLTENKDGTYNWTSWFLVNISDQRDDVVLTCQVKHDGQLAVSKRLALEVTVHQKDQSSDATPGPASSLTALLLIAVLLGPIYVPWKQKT
Sequence of human Sirpα-V2-his (human) (chain, as listed by the source): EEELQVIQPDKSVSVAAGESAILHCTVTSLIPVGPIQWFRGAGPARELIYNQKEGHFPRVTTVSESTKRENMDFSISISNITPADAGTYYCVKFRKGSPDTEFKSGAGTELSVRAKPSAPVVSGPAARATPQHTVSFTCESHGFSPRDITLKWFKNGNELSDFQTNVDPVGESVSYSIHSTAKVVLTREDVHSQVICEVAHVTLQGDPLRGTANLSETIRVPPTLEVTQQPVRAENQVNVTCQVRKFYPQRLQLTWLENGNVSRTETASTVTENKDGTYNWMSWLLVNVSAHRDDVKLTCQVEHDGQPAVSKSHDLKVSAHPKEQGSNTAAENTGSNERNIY

B1: humanized antibody mab14-h16 (antibody, human IgG4 S228P, kappa, V domains shown)
VH: QVQLVQSGAEVKKPGASVKVSCKASGYNFNIYWINWVRQAPGQGLEWIGNIYPSSISTNYNEKFKTRATLTVDKSTSTVYMELSSLRSEDTAVYYCARSEGTYYGGRYEGDWFGYWGQGTLVTVSS
VL: DIQMTQSPSSLSASVGDRVTITCRASQDIRNYLNWYQQKPGKAPKLLIYFTSTLHSGVPSRFSGSGSGTDFTLTISSLQPEDFATYYCQQGNTLPWTFGGGTKVEIKR
notes: hIgG4, κ
As to B1, the IC50 turned out to be 5.92 nM with human Sirpα-V1-hFc and 6.14 nM in the experiment with human Sirpα-V1-his [3]. Further, the binding result in experiment [1] was “no binding (tested: negative control 1.67%)”; in the experiment with Cyno Sirpα L938 it was “no binding (tested: the binding signal was not detected)”. The “fold stronger binding than Ref2” value with human Sirpα-V1-his [2] is 1.4 fold; in the experiment with human Sirpα-V2-his, 2.9 fold. The EC50 with Cyno Sirpα L937 was determined as 0.121 nM.

A word on the IC50: it is the concentration that inhibits the measured activity by half. Read a high IC50 as lower potency. As a reminder, the EC50 is the concentration that produces a half-maximal response. High values mean lower potency in that assay, low ones higher potency in that assay.

Source of the values: patent US20230106247A1 (L AND L BIO CO LTD NINGBO CHINA, published 2023).
